Measured values taken from patent publication US20260273049A1 (ALLIGATOR BIOSCIENCE, published 2026).

Tests used:
[1] = target: human CD40 expressed on cells (CD40 reporter cells, HEK Blue CD40L cells, B cells, Raji cells) (human, UniProt P25942 21-277); assay: cell-based or functional assay
[2] = target: T1, human CEACAM5 expressed on cells (CHO-CEACAM5; MKN45, LS174T tumor cells) (human, UniProt P06731 35-685, GPI anchor on the C-terminal residue (685); heavily N-glycosylated); assay: flow cytometry on LS174T tumor cells (intermediate CEACAM5), fluorochrome-conjugated anti-human IgG [2/3) E]
T1 construct: also called CEACAM5 on cells; CEA expressed on cells
T1 sequence: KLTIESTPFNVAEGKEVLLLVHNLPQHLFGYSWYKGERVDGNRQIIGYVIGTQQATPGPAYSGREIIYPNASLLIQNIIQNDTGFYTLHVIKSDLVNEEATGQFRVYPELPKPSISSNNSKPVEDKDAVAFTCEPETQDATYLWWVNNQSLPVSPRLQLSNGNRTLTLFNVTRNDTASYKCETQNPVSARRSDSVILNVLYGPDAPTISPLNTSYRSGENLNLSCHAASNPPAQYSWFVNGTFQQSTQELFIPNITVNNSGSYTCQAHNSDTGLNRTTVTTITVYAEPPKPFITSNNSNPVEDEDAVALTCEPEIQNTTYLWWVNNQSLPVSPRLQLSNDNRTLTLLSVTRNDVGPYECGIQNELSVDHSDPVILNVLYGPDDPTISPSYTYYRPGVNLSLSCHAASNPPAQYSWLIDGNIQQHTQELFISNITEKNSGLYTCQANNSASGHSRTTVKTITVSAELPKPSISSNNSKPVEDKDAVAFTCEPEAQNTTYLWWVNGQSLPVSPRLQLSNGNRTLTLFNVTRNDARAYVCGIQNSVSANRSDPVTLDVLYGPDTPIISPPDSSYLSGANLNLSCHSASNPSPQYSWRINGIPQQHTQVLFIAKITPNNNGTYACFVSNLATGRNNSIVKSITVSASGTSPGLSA

[3] = target: T2, human CEACAM1 expressed on CHO cells (human, UniProt P13688 35-526); assay: flow cytometry on CEACAM1-transfected CHO cells, fluorochrome-conjugated anti-human IgG [1/2) B]
T2 construct: whole, on cells; also called CHO-CEACAM1; CEACAM1 on cells
T2 sequence (looked up): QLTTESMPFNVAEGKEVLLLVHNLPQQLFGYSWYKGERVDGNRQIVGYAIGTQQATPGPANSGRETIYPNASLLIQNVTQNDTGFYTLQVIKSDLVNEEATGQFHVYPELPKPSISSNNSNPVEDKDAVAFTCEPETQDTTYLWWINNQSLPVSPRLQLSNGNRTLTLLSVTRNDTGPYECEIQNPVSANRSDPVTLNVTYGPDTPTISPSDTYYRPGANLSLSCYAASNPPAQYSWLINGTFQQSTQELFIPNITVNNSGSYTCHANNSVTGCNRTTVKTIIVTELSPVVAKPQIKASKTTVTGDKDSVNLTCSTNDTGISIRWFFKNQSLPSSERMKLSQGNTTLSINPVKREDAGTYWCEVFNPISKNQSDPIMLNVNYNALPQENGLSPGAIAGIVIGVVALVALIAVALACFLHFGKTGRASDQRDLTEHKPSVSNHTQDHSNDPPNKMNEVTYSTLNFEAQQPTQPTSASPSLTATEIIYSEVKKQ
Source text: The human CEACAM5 and CEACAM1 genes were cloned into pcDNA3.1, and the vector was subsequently stably transfected into CHO cells. […] Binding of the antibodies was detected using fluorochrome-conjugated anti-human IgG and analyzed using flow cytometry.

[4] = target: T3, CEACAM-8 (#9639-CM-050, R&D Systems) (UniProt P31997 35-320, limits assumed); assay: ELISA; antigen coated at 0.5 µg/mL, bsAb titrated, anti-human kappa-HRP, luminescence [3/7) Multi40]
T3 construct: Bought protein
T3 sequence (looked up): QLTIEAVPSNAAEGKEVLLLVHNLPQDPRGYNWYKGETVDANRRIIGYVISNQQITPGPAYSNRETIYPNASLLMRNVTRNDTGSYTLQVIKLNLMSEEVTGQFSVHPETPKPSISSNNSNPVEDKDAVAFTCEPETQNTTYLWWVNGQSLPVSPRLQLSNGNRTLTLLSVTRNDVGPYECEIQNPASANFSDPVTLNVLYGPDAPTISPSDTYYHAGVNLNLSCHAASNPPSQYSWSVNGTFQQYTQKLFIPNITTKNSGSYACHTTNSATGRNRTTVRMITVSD
Description: (§1) 96-well plates were coated with 0.5 μg/mL antigen, hCEACAM-1 (2244-CM-050, R&D Systems), hCEACAM-5 (4128-CM-050, R&D Systems), hCEACAM-6 (3934-CM-050, R&D Systems) or CEACAM-8 (9639-CM-050, R&D Systems) in PBS over night at 4° C. After washing in PBS/0.05% Tween 20 (PBST), the plates were blocked with PBST, 2% BSA for at least 30 minutes at room temperature before a second round of washing. RUBY bsAbs, diluted in PBST, 0.5% BSA, were then added and allowed to bind for at least 1 hour at room temperature. […] Finally, a final round of washing was performed and bound complexes detected using SuperSignal Pico Luminescent as substrate and luminescence signals were measured using Fluostar Optima.

[5] = target: T4, human CEACAM5 (hCEACAM-5, #4128-CM-050, R&D Systems) (human, UniProt P06731 35-685); assay: dual target ELISA; hCEACAM-5 coated, bsAb titrated, detection with biotinylated hCD40-muIg and streptavidin-HRP, luminescence; signal needs both targets [1/2) B]
T4 construct: Bought protein; also called Human CEACAM5-His; monomeric human CEACAM5-His
T4 sequence (looked up): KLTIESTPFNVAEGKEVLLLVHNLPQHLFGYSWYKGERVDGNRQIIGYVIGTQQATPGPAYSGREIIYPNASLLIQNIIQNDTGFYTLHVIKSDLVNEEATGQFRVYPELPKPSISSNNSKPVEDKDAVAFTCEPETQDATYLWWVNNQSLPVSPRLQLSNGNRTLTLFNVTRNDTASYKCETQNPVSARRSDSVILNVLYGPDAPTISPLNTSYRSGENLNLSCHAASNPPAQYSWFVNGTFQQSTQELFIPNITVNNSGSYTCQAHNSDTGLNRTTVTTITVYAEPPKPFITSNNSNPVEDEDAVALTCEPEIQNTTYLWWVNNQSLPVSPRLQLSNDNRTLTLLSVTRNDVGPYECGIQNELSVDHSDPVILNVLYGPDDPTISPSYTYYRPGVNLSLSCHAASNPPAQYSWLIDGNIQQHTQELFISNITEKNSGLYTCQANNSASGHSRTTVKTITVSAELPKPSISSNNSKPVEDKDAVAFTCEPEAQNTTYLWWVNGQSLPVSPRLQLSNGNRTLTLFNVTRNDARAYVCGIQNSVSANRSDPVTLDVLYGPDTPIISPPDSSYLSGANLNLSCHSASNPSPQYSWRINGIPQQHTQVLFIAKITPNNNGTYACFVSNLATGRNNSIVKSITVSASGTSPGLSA
Description: as §1

[6] = target: T4, human CEACAM5 (hCEACAM-5, #4128-CM-050, …); assay: ELISA; antigen coated at 0.5 µg/mL, bsAb titrated, anti-human kappa-HRP, luminescence [3/7) Multi39]
Description: as §1

Sequence of human CD40 expressed on cells (CD40 reporter cells, HEK Blue CD40L cells, B cells, Raji cells) (P25942 21-277): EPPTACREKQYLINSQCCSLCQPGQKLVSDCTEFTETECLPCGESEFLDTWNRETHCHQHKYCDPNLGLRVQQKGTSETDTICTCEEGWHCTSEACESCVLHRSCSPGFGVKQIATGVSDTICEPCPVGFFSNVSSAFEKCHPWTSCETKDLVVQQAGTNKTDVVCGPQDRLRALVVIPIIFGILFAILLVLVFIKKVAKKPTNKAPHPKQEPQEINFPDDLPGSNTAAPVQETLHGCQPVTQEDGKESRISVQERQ

| Binder | EC50 (nM), HEK Blue CD40L SEAP reporter, CHO-CEACAM5 crosslinking, 0 Raji sink cells/well [1] [nM] | EC50 (nM), HEK Blue CD40L SEAP reporter, CHO-CEACAM5 crosslinking, 10 000 Raji sink cells/well [1] [nM] | EC50 (nM), HEK Blue CD40L SEAP reporter, CHO-CEACAM5 crosslinking, 30 000 Raji sink cells/well [1] [nM] | EC50 (nM), HEK Blue CD40L SEAP reporter, CHO-CEACAM5 crosslinking, 90 000 Raji sink cells/well [1] [nM] | further results |
| --- | --- | --- | --- | --- | --- |
| ffAC_05337 (bispecific antibody, human IgG1, kappa, L234A L235A) heavy: not shown light: DIQMTQSPSSLSASVGDRVTITCRASQSISSYLNWYQEKPGKAPKLLIYAASSLQSGVPSRFSGSGSGTDFTLTISSLQPEDFATYYCQQAGNPHTFGQGTKLEIKRTVAAPSVFIFPPSDEQLKSGTASVVCYLNNFYPREAKVQWKVDNALQSGNSQESVTEQDSKDSTYSLWSTLTLSKADYEKHKVYACEVTHQGLSSPVTKSFNRGEC EVQLLESGGGLVQPGGSLRLSCAASGFTFSTYGMHWVREAPGKGLEWLSYISGGSSYIFYADSVKGRFTISRDNSKNTLYLQMNSLRAEDTAVYYCARILRGGSGMDLWGQGTLVTVSSASTKGPSVFPLAPSSKSTSGGTAALGCLVKDYFPEPVTVSWNSGALTSGVHTFPAVLQSSGLYSLTSVVEVPSSSLGTQTYICNVNHKPSNTKVDKKVEPKSC | 0.04 | 0.08 | 0.11 | 0.41 |  |
| AC_05337 (bispecific antibody) heavy 1: not shown light: DIQMTQSPSSLSASVGDRVTITCRASQSISSYLNWYQEKPGKAPKLLIYAASSLQSGVPSRFSGSGSGTDFTLTISSLQPEDFATYYCQQAGNPHTFGQGTKLEIKRTVAAPSVFIFPPSDEQLKSGTASVVCYLNNFYPREAKVQWKVDNALQSGNSQESVTEQDSKDSTYSLWSTLTLSKADYEKHKVYACEVTHQGLSSPVTKSFNRGEC heavy 2: EVQLLESGGGLVQPGGSLRLSCAASGFTFSTYGMHWVREAPGKGLEWLSYISGGSSYIFYADSVRGRFTISRDNSENALYLQMNSLRAEDTAVYYCARILRGGSGMDLWGQGTLVTVSSASTKGPSVFPLAPSSKSTSGGTAALGCLVKDYFPEPVTVSWNSGALTSGVHTFPAVLQSSGLYSLSSVVEVPSSSLGTQTYICNVNHKPSNTKVDKKVEPKSC |  |  |  |  | EC50 (read off the curve) [2]: ~4 nM |
| Multi41 (bispecific antibody, Optimized RUBY format; copies: 2 + 2 + 2) heavy 1: not shown light: DIQMTQSPSSLSASVGDRVTITCRASQSISSYLNWYQEKPGKAPKLLIYAASSLQSGVPSRFSGSGSGTDFTLTISSLQPEDFATYYCQQWRSHLFTFGQGTKLEIKRTVAAPSVFIFPPSDEQLKSGTASVVCYLNNFYPREAKVQWKVDNALQSGNSQESVTEQDSKDSTYSLWSTLTLSKADYEKHKVYACEVTHQGLSSPVTKSFNRGEC heavy 2: EVQLLESGGGLVQPGGSLRLSCAASGFTFSTYGMHWVREAPGKGLEWLSYISGGSSYIFYADSVKGRFTISRDNSKNTLYLQMNSLRAEDTAVYYCARILRGGSGMDLWGQGTLVTVSSASTKGPSVFPLAPSSKSTSGGTAALGCLVKDYFPEPVTVSWNSGALTSGVHTFPAVLQSSGLYSLTSVVEVPSSSLGTQTYICNVNHKPSNTKVDKKVEPKSC | 0.03 | 0.06 | 0.13 | 0.36 | binding result [3]: no binding (tested: 400 nM) |
| Multi42 (bispecific antibody, human IgG1, kappa, L234A L235A) heavy: not shown light: EIVLTQSPGTLSLSPGERATLSCRASQSVSSSYLAWYQEKPGQAPRLLIYGASSRATGIPDRFSGSGSGTDFTLTISRLEPEDFAVYYCQQYWYPLTFGQGTKLEIKRTVAAPSVFIFPPSDEQLKSGTASVVCYLNNFYPREAKVQWKVDNALQSGNSQESVTEQDSKDSTYSLWSTLTLSKADYEKHKVYACEVTHQGLSSPVTKSFNRGEC EVQLLESGGGLVQPGGSLRLSCAASGFTFSTYGMHWVREAPGKGLEWLSYISGGSSYIFYADSVKGRFTISRDNSKNTLYLQMNSLRAEDTAVYYCARILRGGSGMDLWGQGTLVTVSSASTKGPSVFPLAPSSKSTSGGTAALGCLVKDYFPEPVTVSWNSGALTSGVHTFPAVLQSSGLYSLTSVVEVPSSSLGTQTYICNVNHKPSNTKVDKKVEPKSC | 0.04 | 0.06 | 0.11 | 0.36 |  |
| Multi40 (bispecific antibody, Optimized RUBY format; copies: 2 + 2 + 2) heavy 1: not shown light: DIQMTQSPSSLSASVGDRVTITCRASQSISSYLNWYQEKPGKAPKLLIYAASSLQSGVPSRFSGSGSGTDFTLTISSLQPEDFATYYCQQSSHGPLLTFGQGTKLEIKRTVAAPSVFIFPPSDEQLKSGTASVVCYLNNFYPREAKVQWKVDNALQSGNSQESVTEQDSKDSTYSLWSTLTLSKADYEKHKVYACEVTHQGLSSPVTKSFNRGEC heavy 2: EVQLLESGGGLVQPGGSLRLSCAASGFTFSTYGMHWVREAPGKGLEWLSYISGGSSYIFYADSVKGRFTISRDNSKNTLYLQMNSLRAEDTAVYYCARILRGGSGMDLWGQGTLVTVSSASTKGPSVFPLAPSSKSTSGGTAALGCLVKDYFPEPVTVSWNSGALTSGVHTFPAVLQSSGLYSLTSVVEVPSSSLGTQTYICNVNHKPSNTKVDKKVEPKSC |  |  |  |  | binding result [4]: no binding (tested: 100 nM); EC50 (read off the curve) [5]: ~0.6 nM |
| Multi39 (bispecific antibody, Optimized RUBY format; copies: 2 + 2 + 2) heavy 1: not shown light: not shown heavy 2: EVQLLESGGGLVQPGGSLRLSCAASGFTFYDHAMSWVREAPGKGLEWVSAISGSYGSTGYADSVKGRFTISRDNSKNTLYLQMNSLRAEDTAVYYCARWGGWAGDIDYWGQGTLVTVSSASTKGPSVFPLAPSSKSTSGGTAALGCLVKDYFPEPVTVSWNSGALTSGVHTFPAVLQSSGLYSLTSVVEVPSSSLGTQTYICNVNHKPSNTKVDKKVEPKSC |  |  |  |  | EC50 (read off the curve) [6]: 1 to 2 nM |
